The record followed here is patent US20240376214A1, “ANTI-C-MET ANTIBODIES AND ANTIBODY-DRUG CONJUGATES” (BYONDIS B.V., priority 2021, published 2024).

Test [1] concerns the target T1, human c-Met (HGFR), full length, on the cell surface (human, UniProt P08581 25-1390).
T1 construct: Endogenous c-Met on human tumor cell lines MKN45, NCI-H596, PC-3 and HepG2; also called hepatocyte growth factor receptor; mesenchymal-epithelial transition factor
The test can be described thus: flow cytometry on MKN45, NCI-H596 and PC-3 cells. How it is done: (§1) Cellular binding of the 14 wild-type chimeric and the 14 HC-41C chimeric anti-c-Met antibodies was studied in human c-Met-positive tumor cell lines MKN45, NCI-H596 and PC-3, rhesus c-Met-positive tumor cell line 4 MBr-5, and human c-Met-negative tumor cell line MDA-MB-175-VII. Cells were used around 90% of confluence at the time of an assay, detached with Trypsin-Versene (EDTA) (Lonza) for 5-10 minutes, washed and adjusted to a concentration of 1×10⁶ cells/mL in ice-cold FACS buffer (PBS 1×, 0.1% v/w BSA, 0.02% v/v sodium azide (NaN₃)). Staining was performed in 96-well round-bottomed microtiter plates using ice-cold reagents/solutions at 4° C. to prevent the modulation and internalization of surface antigens. 100,000 cells/well were added to 96-well plates (100 μL/well) and centrifuged at 300×g for 3 minutes. In case of pre-incubation with HGF (paracrine cell lines only), the cells were resuspended in 50 ng/mL recombinant human HGF in FACS buffer (50 μL/well) and incubated for 30 minutes at 4° C., followed by two wash steps with 150 μL FACS buffer. Supernatant was discarded and cells were stained for 30 minutes with 50 μL of each antibody. Serial dilutions were made in ice-cold FACS buffer. Cells were washed twice by centrifugation at 300×g for 3 minutes and resuspended in 50 μL 6000-times diluted secondary F(ab′)₂ goat anti-human IgG (Fc fragment specific) antibody APC-conjugated (Jackson ImmunoResearch). Following a 30-minute incubation on ice, cells were washed again 2 times and resuspended in 150 μL ice-cold FACS buffer for FACS analysis. For analysis of the data, the Median Fluorescence Intensity (MFI) values were obtained.

Test [2] addresses T1, human c-Met (HGFR), full length, on the …. Kind of test: flow cytometry, MKN45 cells, without HGF. How it is done:
as §1, with “in total 75 humanized” for “14 wild-type chimeric and the 14 HC-41C chimeric”, “antibodies (originating from the three selected chimeric antibodies)” for “antibodies”, “HGF,” for “HGF (paracrine cell lines only),”

Test [3] shares this target. Kind of test: flow cytometry, PC-3 cells; EC50 with 50 ng/mL HGF against EC50 without HGF. How it is done: as §1, with “in total 75 humanized” for “14 wild-type chimeric and the 14 HC-41C chimeric”, “antibodies (originating from the three selected chimeric antibodies)” for “antibodies”, “HGF,” for “HGF (paracrine cell lines only),”
On the technique in general: Flow cytometry measures light scatter and fluorescence of single cells or particles in a stream.

Test [4] concerns the target T2, rhesus c-Met on 4MBr-5 cells (rhesus, UniProt F7H1K4 25-1381, Natural c-Met is cleaved at the furin site (KRKKR/S) into disulphide-linked alpha and beta subunits; given here as one mature polypeptide.).
T2 construct: also called rhesus c-Met antigen
Kind of test: flow cytometry, 4MBr-5 cells pre-incubated with 50 ng/mL HGF. How it is done: as §1, with “in total 75 humanized” for “14 wild-type chimeric and the 14 HC-41C chimeric”, “antibodies (originating from the three selected chimeric antibodies)” for “antibodies”, “HGF,” for “HGF (paracrine cell lines only),”

In test [5] the target is T1, human c-Met (HGFR), full length, on the …. The test can be described thus: flow cytometry, NCI-H596 cells, without HGF. How it is done: as §1, with “in total 75 humanized” for “14 wild-type chimeric and the 14 HC-41C chimeric”, “antibodies (originating from the three selected chimeric antibodies)” for “antibodies”, “HGF,” for “HGF (paracrine cell lines only),”
The target in test [6] is T2, rhesus c-Met on 4MBr-5 cells. The test can be described thus: flow cytometry, 4MBr-5 cells, without HGF. How it is done:
as §1, with “in total 75 humanized” for “14 wild-type chimeric and the 14 HC-41C chimeric”, “antibodies (originating from the three selected chimeric antibodies)” for “antibodies”, “HGF,” for “HGF (paracrine cell lines only),”

The target in test [7] is T1, human c-Met (HGFR), full length, on the …. The test can be described thus: flow cytometry, NCI-H596 cells; EC50 with 50 ng/mL HGF against EC50 without HGF. How it is done:
as §1, with “in total 75 humanized” for “14 wild-type chimeric and the 14 HC-41C chimeric”, “antibodies (originating from the three selected chimeric antibodies)” for “antibodies”, “HGF,” for “HGF (paracrine cell lines only),”

For test [8], the target named is T2, rhesus c-Met on 4MBr-5 cells. Kind of test: flow cytometry, 4MBr-5 cells; EC50 with 50 ng/mL HGF against EC50 without HGF. How it is done: as §1, with “in total 75 humanized” for “14 wild-type chimeric and the 14 HC-41C chimeric”, “antibodies (originating from the three selected chimeric antibodies)” for “antibodies”, “HGF,” for “HGF (paracrine cell lines only),”

For test [9], the target named is T1, human c-Met (HGFR), full length, on the …. Kind of test: flow cytometry, PC-3 cells pre-incubated with 50 ng/mL HGF. How it is done:
as §1, with “in total 75 humanized” for “14 wild-type chimeric and the 14 HC-41C chimeric”, “antibodies (originating from the three selected chimeric antibodies)” for “antibodies”, “HGF,” for “HGF (paracrine cell lines only),”

For test [10] the target is unchanged. The test can be described thus: flow cytometry, PC-3 cells, without HGF. How it is done:
as §1, with “in total 75 humanized” for “14 wild-type chimeric and the 14 HC-41C chimeric”, “antibodies (originating from the three selected chimeric antibodies)” for “antibodies”, “HGF,” for “HGF (paracrine cell lines only),”

The target is the same in test [11]. Kind of test: flow cytometry, NCI-H596 cells pre-incubated with 50 ng/mL HGF. How it is done:
as §1, with “in total 75 humanized” for “14 wild-type chimeric and the 14 HC-41C chimeric”, “antibodies (originating from the three selected chimeric antibodies)” for “antibodies”, “HGF,” for “HGF (paracrine cell lines only),”

The target of the next test is T3, c-Met (Homo sapiens, UniProt P08581, DEL964-1010).
T3 construct: endogenous in cells; host or cells: NCI-H596
The test can be described thus: Functionality of chimeric antibodies, stimulation of proliferation experiment in NCI-H596 cells. It counts as cell-based. The source says:
From this perspective, although all three wt/41C chimeric mAbs were humanized and studied in further experiments, wt/41C-chi-mAb3 is the most preferred chimeric anti-c-Met antibody to further develop into an ADC for treatment of a cancer indication.

T2 sequence (F7H1K4 entry or part of it limits assumed): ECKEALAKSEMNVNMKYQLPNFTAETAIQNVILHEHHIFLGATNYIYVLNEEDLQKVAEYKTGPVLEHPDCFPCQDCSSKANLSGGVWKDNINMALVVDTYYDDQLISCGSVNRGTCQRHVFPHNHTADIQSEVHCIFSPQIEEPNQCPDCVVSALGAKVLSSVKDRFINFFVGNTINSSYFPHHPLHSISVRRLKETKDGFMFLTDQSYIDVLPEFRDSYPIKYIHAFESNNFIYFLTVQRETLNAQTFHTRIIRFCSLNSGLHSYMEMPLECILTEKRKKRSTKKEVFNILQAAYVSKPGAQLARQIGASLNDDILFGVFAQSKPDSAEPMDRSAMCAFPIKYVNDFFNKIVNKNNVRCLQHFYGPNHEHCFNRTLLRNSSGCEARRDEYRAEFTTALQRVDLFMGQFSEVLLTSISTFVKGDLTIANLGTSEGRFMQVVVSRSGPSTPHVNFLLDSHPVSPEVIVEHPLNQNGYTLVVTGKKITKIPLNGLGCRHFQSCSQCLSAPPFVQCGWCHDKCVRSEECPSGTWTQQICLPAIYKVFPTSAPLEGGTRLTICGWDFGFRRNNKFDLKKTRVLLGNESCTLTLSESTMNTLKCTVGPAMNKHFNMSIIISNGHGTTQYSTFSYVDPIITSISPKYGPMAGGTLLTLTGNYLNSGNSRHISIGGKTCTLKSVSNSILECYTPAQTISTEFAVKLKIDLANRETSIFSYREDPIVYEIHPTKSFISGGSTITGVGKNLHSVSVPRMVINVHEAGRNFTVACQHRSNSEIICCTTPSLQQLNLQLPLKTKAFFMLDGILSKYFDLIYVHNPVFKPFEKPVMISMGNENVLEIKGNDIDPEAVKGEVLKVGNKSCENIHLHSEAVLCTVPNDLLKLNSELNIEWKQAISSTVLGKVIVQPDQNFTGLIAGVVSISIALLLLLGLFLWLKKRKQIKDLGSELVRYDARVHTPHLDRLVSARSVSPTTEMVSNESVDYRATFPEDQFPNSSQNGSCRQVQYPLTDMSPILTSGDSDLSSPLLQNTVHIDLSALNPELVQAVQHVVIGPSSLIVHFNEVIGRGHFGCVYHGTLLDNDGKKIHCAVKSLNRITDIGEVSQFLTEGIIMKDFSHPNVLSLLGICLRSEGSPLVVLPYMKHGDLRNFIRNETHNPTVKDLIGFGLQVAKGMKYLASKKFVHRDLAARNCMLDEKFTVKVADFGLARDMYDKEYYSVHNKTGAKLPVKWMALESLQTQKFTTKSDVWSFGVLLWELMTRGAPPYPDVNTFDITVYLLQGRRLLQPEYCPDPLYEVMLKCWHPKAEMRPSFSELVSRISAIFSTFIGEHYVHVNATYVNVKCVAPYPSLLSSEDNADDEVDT

B1: wt-chi-mAb1 (antibody, human IgG1, kappa, V domains shown)
VH: EVQLQQSGPELLKPGASVKMSCKASGYIFTDYFMNWVKQSHGKSLEWIGRVNPKNGDITYNQKFRGKATLTVDKSLTTAYMQLNSLTSEDSAVYFCAYDGYYDGMDFWGQGTSVTVSS
VL: ENVLTQSPAIMSASPGEKVTMTCRANSSVSSNFLHWYQQKSGASPKLWISSTSNLAFGVPPRFSGSGSGTSYSLTISSVEAEDAATYYCHQYSGHPFTFGSGTKLEIKR
notes: Mouse/human chimeric IgG1 kappa; also called wild-type chimeric antibody mAb1
With B1, the binding result in test [1] is recorded as “binds”.

B2: 41C-chi-mAb1 (antibody, human IgG1, kappa, V domains shown)
VH: EVQLQQSGPELLKPGASVKMSCKASGYIFTDYFMNWVKQSCGKSLEWIGRVNPKNGDITYNQKFRGKATLTVDKSLTTAYMQLNSLTSEDSAVYFCAYDGYYDGMDFWGQGTSVTVSS
VL: ENVLTQSPAIMSASPGEKVTMTCRANSSVSSNFLHWYQQKSGASPKLWISSTSNLAFGVPPRFSGSGSGTSYSLTISSVEAEDAATYYCHQYSGHPFTFGSGTKLEIKR
notes: Chimeric IgG1 kappa with an engineered cysteine at HC position 41 (Kabat); also called HC-41C chimeric antibody mAb1
B2: in [1], the binding result is “binds”.

B3: wt-chi-mAb3 (antibody, human IgG1, kappa, V domains shown)
VH: QIQLQQSGPELVKPGASVKISCKASGYTFTDYYLNWVKQRPGQGLEWIGLIFPGNDKTEYSEKFKGKATLTVDTSSSTAYIQLSRLSSEDSAIYFCSGGDYGGFVYWGQGTLVTVSS
VL: DIQMTQSPTSLSASVGETVTITCGASENIYGALNWYQRKQGKSPQLLIYGATNLADGMSSRFSGSGSGRQFSLKINSLHPDDVATYFCQNVLSSPLTFGSGTKLEIKR
notes: Mouse/human chimeric IgG1 kappa; also called wild-type chimeric antibody mAb3
Regarding B3, the binding result in test [1] is “binds”.

B4: 41C-chi-mAb3 (antibody, human IgG1, kappa, V domains shown)
VH: QIQLQQSGPELVKPGASVKISCKASGYTFTDYYLNWVKQRCGQGLEWIGLIFPGNDKTEYSEKFKGKATLTVDTSSSTAYIQLSRLSSEDSAIYFCSGGDYGGFVYWGQGTLVTVSS
VL: DIQMTQSPTSLSASVGETVTITCGASENIYGALNWYQRKQGKSPQLLIYGATNLADGMSSRFSGSGSGRQFSLKINSLHPDDVATYFCQNVLSSPLTFGSGTKLEIKR
notes: Chimeric IgG1 kappa with an engineered cysteine at HC position 41 (Kabat); also called HC-41C chimeric antibody mAb3
Regarding B4, the binding result in test [1] was “binds”.

B5: mAb3d (antibody, human IgG1, kappa, V domains shown)
VH: QVQLQESGAEVKKPGASVKVSCKASGYTFTDYYLNWVRQACGQGLEWMGLIFPGNDKTEYSEKFKGRVTMTRDTSTSTVYMELSSLRSEDTAVYYCSGGDYGGFVYWGQGTLVTVSS
VL: DIQLTQSPSSLSASVGDRVTITCGASENIYGALNWYQQKPGKAPKLLIYGATNLADGVPSRFSGSGSGTDFTLTISSLQPEDFATYYCQNVLSSPLTFGPGTKVDIKR
notes: Humanized IgG1 kappa, HC-41C, from wt/41C-chi-mAb3; also called humanized HC-41C antibody mAb3d
The EC50 is the concentration that produces a half-maximal response. As for B5, the EC50 in test [2] was 0.07 µg/mL; in test [4] it was 0.05 µg/mL; in [5], 0.02 µg/mL; in test [6] it was 0.03 µg/mL; in test [9] it was 0.08 µg/mL; in test [10], 0.03 µg/mL. The same molecule gave a concentration for a half-maximal effect (EC50) in test [11] of 0.15 µg/mL. The “Fold shift (HGF)” value in test [3] was found to be 2.7 fold; in [7], 7.5 fold; in test [8], 1.6 fold.

B6: mAb2b (antibody, human IgG1, kappa, V domains shown)
VH: QVQLVQSGAEVKKPGSSVKVSCKASGYVFPDYEMHWVRQACGQGLEWMGAFDPETGDTTYNQNFKGRVTITADKSTSTAYMELSSLRSEDTAVYYCARDYKYLYYYAMDNWGQGTTVTVSS
VL: DIQMTQSPSSLSASVGDRVTITCTASSSITSSYLHWYQQKPGKAPKLLIYSTTNLASGVPSRFSGSGSGTDFTLTISSLQPEDFATYYCHQYRRSPLTFGGGTKLEIKR
notes: Humanized IgG1 kappa, HC-41C, from wt/41C-chi-mAb2; also called humanized HC-41C antibody mAb2b
For B6, the EC50 was 0.14 µg/mL in [2]; 0.15 µg/mL in test [4]; 0.04 µg/mL in test [5]; 0.09 µg/mL in test [6]; 0.13 µg/mL in [9]; 0.05 µg/mL in [10]. Besides, the EC50 in test [11] was determined as 0.11 µg/mL. Further, the “Fold shift (HGF)” value came out at 2.6 fold in [3], 2.8 fold in test [7] and 1.7 fold in test [8].

B7: wt-chi-mAb2 (antibody, human IgG1, kappa, V domains shown)
VH: QVQLQQSGAELVRPGASVKLSCKASGYVFPDYEMHWVKQTPVHGLEWIGAFDPETGDTTYNQNFKGKATLTADKASSTAYMDLRSLTSGDSAVYYCARDYKYLYYYAMDNWGQGTSVTVSS
VL: QIVLTQSPAIMSASLGERVTMTCTASSSITSSYLHWYQQKPGSSPKLWIYSTTNLASGVPGRFSGSGSGTSFSLTISSMEAEDAATYYCHQYRRSPLTFGAGTKLELKR
notes: Mouse/human chimeric IgG1 kappa; also called wild-type chimeric antibody mAb2
Take B7: in test [1], the binding result is on record as “binds”.

B8: 41C-chi-mAb2: HC-41C chimeric anti-c-Met IgG1 antibody, VH SEQ ID NO:8, VL SEQ ID NO:4 (antibody, V domains shown)
VH: QVQLQQSGAELVRPGASVKLSCKASGYVFPDYEMHWVKQTCVHGLEWIGAFDPETGDTTYNQNFKGKATLTADKASSTAYMDLRSLTSGDSAVYYCARDYKYLYYYAMDNWGQGTSVTVSS
VL: QIVLTQSPAIMSASLGERVTMTCTASSSITSSYLHWYQQKPGSSPKLWIYSTTNLASGVPGRFSGSGSGTSFSLTISSMEAEDAATYYCHQYRRSPLTFGAGTKLELK
modifications: IgG1 constant regions; HCVR - VH P41C; LCVR
In the case of B8, the Functionality result with c-Met is recorded as “Partial agonist”.

B9: 41C-chi-mAb2 (antibody, human IgG1, kappa, V domains shown)
VH: QVQLQQSGAELVRPGASVKLSCKASGYVFPDYEMHWVKQTCVHGLEWIGAFDPETGDTTYNQNFKGKATLTADKASSTAYMDLRSLTSGDSAVYYCARDYKYLYYYAMDNWGQGTSVTVSS
VL: QIVLTQSPAIMSASLGERVTMTCTASSSITSSYLHWYQQKPGSSPKLWIYSTTNLASGVPGRFSGSGSGTSFSLTISSMEAEDAATYYCHQYRRSPLTFGAGTKLELKR
notes: Chimeric IgG1 kappa with an engineered cysteine at HC position 41 (Kabat); also called HC-41C chimeric antibody mAb2
In the case of B9, the binding result in [1] is “binds”.
